The values below are quoted from earlier work in article PMC8758526.

For one data set, the target named is TREM-1 (Mus musculus) (UniProt Q9JKE2).
In the next data set the target is TLR4 (Mus musculus) (UniProt Q9QUK6).
Sequence of UniProt Q9QUK6 (Q9QUK6 26-835): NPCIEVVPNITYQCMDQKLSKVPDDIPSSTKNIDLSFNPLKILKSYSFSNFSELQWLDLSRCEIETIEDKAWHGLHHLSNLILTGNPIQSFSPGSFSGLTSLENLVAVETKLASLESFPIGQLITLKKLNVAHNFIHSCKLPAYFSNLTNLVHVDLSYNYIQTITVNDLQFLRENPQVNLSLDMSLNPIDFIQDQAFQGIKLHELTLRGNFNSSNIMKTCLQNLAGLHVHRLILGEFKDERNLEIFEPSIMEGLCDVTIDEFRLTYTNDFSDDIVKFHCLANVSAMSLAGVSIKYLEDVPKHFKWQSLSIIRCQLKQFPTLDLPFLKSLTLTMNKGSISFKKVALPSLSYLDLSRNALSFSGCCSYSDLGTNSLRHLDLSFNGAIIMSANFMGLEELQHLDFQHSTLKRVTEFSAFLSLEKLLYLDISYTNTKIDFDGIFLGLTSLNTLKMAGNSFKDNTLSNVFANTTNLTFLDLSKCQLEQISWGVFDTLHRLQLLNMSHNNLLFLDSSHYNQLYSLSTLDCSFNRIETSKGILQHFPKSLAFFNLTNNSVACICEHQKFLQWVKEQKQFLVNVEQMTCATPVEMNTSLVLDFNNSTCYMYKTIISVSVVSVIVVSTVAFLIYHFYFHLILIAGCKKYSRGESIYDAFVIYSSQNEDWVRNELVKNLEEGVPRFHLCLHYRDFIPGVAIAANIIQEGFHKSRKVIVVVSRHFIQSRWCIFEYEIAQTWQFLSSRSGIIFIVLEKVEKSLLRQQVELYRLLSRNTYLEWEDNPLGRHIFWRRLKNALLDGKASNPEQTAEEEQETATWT

Sequence of UniProt Q9JKE2 (Q9JKE2 21-230): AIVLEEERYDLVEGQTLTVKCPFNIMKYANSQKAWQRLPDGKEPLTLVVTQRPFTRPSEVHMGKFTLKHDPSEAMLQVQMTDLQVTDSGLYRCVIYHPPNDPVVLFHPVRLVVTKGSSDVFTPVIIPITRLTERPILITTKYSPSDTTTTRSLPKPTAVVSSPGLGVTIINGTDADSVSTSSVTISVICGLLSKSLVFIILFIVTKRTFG

With eCIRP (from UniProt P60824), the equilibrium dissociation constant (Kd) (as a rule, a measure of binding affinity in units of concentration) with TREM-1 (Mus musculus) was 117 nM; with TLR4 (Mus musculus), 617 nM.
